According to the supplement of paper PMC9732359:
± gives the uncertainty stated by the source.

Assay: protein stability index of a GFP-peptide fusion (yeast GPS) (PSI 1-4); higher = more stable; sorted into four equal gates, so the index is relative within each strain
Procedure, shortened: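 The protein stability index of a peptide was calculated by multiplying its read frequency in each gate by that gate's number and adding the products. The peptides were tiled 17-residue stretches of yeast proteins, fused downstream of GFP on a Cherry-expressing plasmid and carried in yeast as a pooled library. Mid-log cultures in leucine-free medium were sorted into four equal gates by GFP/Cherry ratio, and each gate's plasmids were PCR-amplified and Illumina-sequenced.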

Sequence | protein stability index (doa10∆) | protein stability index (pdr5∆) | protein stability index (san1∆) | protein stability index (ubr1∆)
RYKPGTVALREIRRFQK [HHT1] | 3.19 ± 0.11 | 2.97 ± 0.091 | 3.07 ± 0.065 | 3.07 ± 0.078
EGTPINNVYFAAGALFV [RPN14] | 2.2 ± 0.091 | 2.63 ± 0.13 | 2.72 ± 0.12 | 2.45 ± 0.11
TQEEVELPLEDFKAKYC [RPB5] | 3.33 ± 0.11 | 3.25 ± 0.11 | 3.58 ± 0.11 | 3.28 ± 0.071
SEVLVDTLDSKSNGSSD [ISW2] | 3.07 ± 0.07 | 3.15 ± 0.066 | 3.11 ± 0.054 | 3.04 ± 0.058
CEKWAASSWAKKIAQRE [RPL14A] | 2.35 ± 0.089 | 3.16 ± 0.12 | 2.24 ± 0.17 | 2.06 ± 0.062
AGGGESDSALILMYKGF [UBP6] | 3.29 ± 0.091 | 3.45 ± 0.08 | 3.26 ± 0.12 | 3.35 ± 0.063
EGYGLRDVMCTDGVIGS [RPO31] | 2.35 ± 0.11 | 3.29 ± 0.14 | 2.58 ± 0.14 | 2.84 ± 0.06
QLEDESSRLEFVKGISR [YML103C/NUP188] | 3.45 ± 0.095 | 3.2 ± 0.11 | 3.33 ± 0.067 | 3.21 ± 0.099
TNEFVGSPSLTSPQYIP [NUT1] | 2.85 ± 0.057 | 3.04 ± 0.043 | 3.06 ± 0.035 | 2.93 ± 0.032
IEVTIGIDQYSFNVKEN [AAR2] | 2.67 ± 0.053 | 2.75 ± 0.05 | 2.58 ± 0.047 | 2.76 ± 0.056
FKRNAVFVGTIFAGAFV [QCR9] | 1.92 ± 0.064 | 1.58 ± 0.054 | 1.26 ± 0.12 | 1.67 ± 0.051
KQFVVDVLHPNRANVSK [RPS24A] | 2.94 ± 0.073 | 3.24 ± 0.082 | 2.96 ± 0.079 | 3.07 ± 0.05
YSKIKHLGLDDPQDVFN [SIR2] | 2.77 ± 0.18 | 3.22 ± 0.19 | 3.3 ± 0.14 | 3.24 ± 0.096
AQEDVPYLLPYILEAEA [QCR7] | 2.02 ± 0.048 | 1.79 ± 0.046 | 2.03 ± 0.067 | 1.86 ± 0.038
RNSTRSSGFNEDIVGAL [REC8] | – | 3.58 ± 0.21 | – | –
NSSNLSYNNTGISDDEN [RRP4] | 2.53 ± 0.07 | 2.87 ± 0.064 | 2.87 ± 0.049 | 2.79 ± 0.06
TRIAGVVYHPSNNELVR [RPS8A] | 2.666 ± 0.019 | 2.47 ± 0.018 | 2.56 ± 0.02 | 2.652 ± 0.013
GRICRPLIIVSDGQSRV [RET1] | 2.06 ± 0.045 | 2.11 ± 0.037 | 1.75 ± 0.059 | 2.16 ± 0.038
EISPQDSIASVLSPDSN [GAL11] | 1.99 ± 0.064 | 2.34 ± 0.062 | 2.98 ± 0.087 | 2.64 ± 0.055
PHQSPDATRVFVNGVWH [RPB2] | 2.84 ± 0.061 | 3.05 ± 0.056 | 2.98 ± 0.047 | 3.15 ± 0.045
VPLSDNAIIEANLGKYG [RPL7A] | 2.29 ± 0.073 | 2.25 ± 0.074 | 2.45 ± 0.074 | 2.28 ± 0.075
LDNSKMDYHFIFSYLQF [RGR1] | 2.45 ± 0.061 | 1.72 ± 0.056 | 1.89 ± 0.047 | 1.8 ± 0.065
VFKLSTNLISKISLLRP [SWP82] | 2.11 ± 0.099 | 2.43 ± 0.1 | 2.13 ± 0.18 | 2.87 ± 0.088
IREKVAKQALDLYHFAL [SNF2] | 2.52 ± 0.092 | 2.64 ± 0.098 | 2.62 ± 0.094 | 2.54 ± 0.056
KRIKGLEFSALSAADIV [RPO31] | 3.09 ± 0.09 | 3.15 ± 0.076 | 3.15 ± 0.061 | 3.24 ± 0.067
ESNVNDSDMLTKSHNTV [NUT1] | 3.08 ± 0.1 | 3.25 ± 0.095 | 3.28 ± 0.086 | 3.43 ± 0.1
